Test results reported in paper PMC3683045.

Test system: preKARS2 (cytosolic precursor of human mitochondrial lysyl-tRNA synthetase) (human), Q15046-2
Test: EMSA
Settings: 10 mM Mg2+; unmodified T7 transcript; EMSA: 20 mM Tris-HCl pH 7.5, 150 mM NaCl, 10 mM MgCl2, 5 mM DTT, 10% glycerol, 0.1 mg/ml BSA, 30 C, 15 min; native 8% PAGE in 0.5x Tris-borate pH 8.3, 5% …

Chain of preKARS2 (cytosolic precursor of human mitochondrial lysyl-tRNA synthetase) (human), Q15046-2 (Q15046 other isoform, or with tags, fused parts or gaps): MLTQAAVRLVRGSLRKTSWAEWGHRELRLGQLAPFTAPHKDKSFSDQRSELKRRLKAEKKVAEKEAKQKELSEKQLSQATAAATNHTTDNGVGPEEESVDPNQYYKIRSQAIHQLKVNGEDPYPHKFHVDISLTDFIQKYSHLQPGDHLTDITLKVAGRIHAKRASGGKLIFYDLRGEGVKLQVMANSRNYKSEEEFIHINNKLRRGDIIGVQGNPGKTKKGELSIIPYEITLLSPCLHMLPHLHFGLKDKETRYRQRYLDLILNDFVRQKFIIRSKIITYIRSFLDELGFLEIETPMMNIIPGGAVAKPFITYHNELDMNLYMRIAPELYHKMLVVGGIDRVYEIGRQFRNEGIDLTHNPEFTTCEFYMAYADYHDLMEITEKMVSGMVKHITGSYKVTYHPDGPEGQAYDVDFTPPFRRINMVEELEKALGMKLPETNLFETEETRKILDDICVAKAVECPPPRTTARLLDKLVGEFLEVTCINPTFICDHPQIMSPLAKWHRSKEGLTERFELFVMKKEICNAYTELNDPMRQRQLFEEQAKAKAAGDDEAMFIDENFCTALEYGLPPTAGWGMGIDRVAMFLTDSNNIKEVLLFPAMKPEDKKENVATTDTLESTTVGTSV

Substance: tRK1 (yeast tRNALys CUU)
- Kd: 300 nM
